Measurements published in US20020081638.

Tested on: free histones (mixture of H1, H3, H2B, H2A and H4; Boehringer Mannheim)

Question: For GST-SUV39H1(82-412) H320R, which “in vitro HMTase assay with free histones, activity against the unmutated product” value is on record?
Answer: Its value is “the latter mutation (H320R) resulted in an hyperactive enzyme with approximately 20-fold increased activity”.
